Laboratory results: publication PMC5623066

Molecular target: TDP2 used in vitro (construct not stated) (UniProt O95551)

- Kd: 880 nM
Substance: SUMO2 used in vitro (from UniProt P61956 10-93) (natural protein)
